Data as given in the supplement of paper PMC9170038.

system: MS2 coat protein; assay: apparent KD of MS2 coat protein; higher = weaker reporter binding; details: Eterna round: R107; input ligand: arginine 13.2 mM
Procedure, shortened: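 Apparent KD per design is the median of normalised cluster binding-curve fits. Designed RNA switches transcribed on-chip from Illumina sequencing clusters were titrated with SNAP-549-labelled MS2 coat protein in twofold steps from 0.7 or 1.5 nM to 3 µM, with 0.8–1.5 h down to 10–20 min per step. Buffer: 100 mM Tris-HCl pH 7.5, 80 mM KCl, 4 mM MgCl2, without or with constant ligand.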

**Q.** Which “apparent KD of MS2 coat protein” value does the source give for “UAACAUGAGGAUCACCCAUGUUUGAAGGAACGAGGACCGGUACGGCCGCCACUCGACGAGUGGAUGAGAAGUGGGAUUGUGUGCU [Same State Trp A GF8]” here?
**A.** 14.4 nM

**Q.** With “GGGUACAUCGCGGCCGCCACUUGUGUAAAUACAUGAGGAUCACCCAUGUCGAUGGAGACAUCGGAGAGGACCGGGUGAUGUACCG” as the sequence, how does the “apparent KD of MS2 coat protein” value read?
**A.** 70.7 nM

**Q.** “GCGAUGGAGCGAAGGAGCGUGCUAGUACAUGAGGAUCACCCAUGUGAGUCGCAGCGCUAAGCACAGGUAGGUCGCGCUCCAUCGC [EAB NP+V+V2 #12]” was tested. Which “apparent KD of MS2 coat protein” value did it give?
**A.** 31.1 nM

**Q.** With “GGUAUAUAGGCGGCCGCCACUGAUUUUCAUAUAUAUAUAACAUGAGGAUCACCCAUGUAGAUAUACAGGACCGGGCCUAUAUAUU [aaaC]” as the sequence, how does the “apparent KD of MS2 coat protein” value read?
**A.** 16.1 nM

**Q.** “AAUGUAUGGCACAUGAGGAUCACCCAUGUGCGAGGACCGGUACGGCCGCCACUCGGUCGUGGGUUCUUAUUACUAUACAUUAAUG [XTryp A #14]” was tested. Which “apparent KD of MS2 coat protein” value did it give?
**A.** 11.4 nM

**Q.** Which “apparent KD of MS2 coat protein” value does the source give for “GAUCCUCAUACGGAUACCAGCGAAUAACAUGAGGAUCACCCAUGUAAUAAAGAAAAUAAAUGCCCUUGGCAGCCGAAUAGAUAGU [Same State Theophylline B GF 1]” here?
**A.** 36.2 nM

**Q.** For “CACGGCCAUGAGGAUCACCCAUGGAAUAAUCGAGGACCGGUACGGCCGCCACUCGUGGACCGUGACCUGUACGAAAAGUGCAGGA”, which “apparent KD of MS2 coat protein” value is on record?
**A.** 20.8 nM

**Q.** Which “apparent KD of MS2 coat protein” value does the source give for “AACAUGAGGAUCACCCAUGUCCCAUGUGAACGAGGACCGGUACGGCCGCCACUCGAAUAAGGCGGCACAUGAGGAUCACCCACAU [AstrosSSTry#1]” here?
**A.** 101 nM

**Q.** “AAAUAAAUAACUGAUACCAGUCGGACAACAUGAGGAUCACCCAUGUUCACCCAUGUUGAGGACCCUUGGCAGCAGAAAUAUAAAA [test (nupak+vienna]” was tested. Which “apparent KD of MS2 coat protein” value did it give?
**A.** 41.5 nM

**Q.** How did the “apparent KD of MS2 coat protein” value turn out when “AGCGACAUGCGUGAUACCAGCUACAUGAGGAUCACCCAUGUGAGUAGGAAACUACUGUGUAGCCCUUGGCAGCACAGUGCAUGUC [Exclusion - Theophylline B (Freestyle 25)]” was run?
**A.** 11.4 nM

**Q.** “CCUAUGCAGUCGGCCGCCACUGAACAUGAGGAUCACCCAUGUAAUUAAAAUUAAGAUCCUGAAAUCAGGACCGGGACUGUAUAGG [Ex Tryptophan B 4]” was tested. Which “apparent KD of MS2 coat protein” value did it give?
**A.** 25.5 nM

**Q.** Which “apparent KD of MS2 coat protein” value does the source give for “AUCGUACCUGAUGAUACCAGCAAUUGCUCGUGACAUGAGGAUCACCCAUGUGACCAGUGAUGCCCUUGGCAGCAUGGUCGGUGCA [Same State - Theophylline B (Freestyle 22)]” here?
**A.** 42.8 nM

**Q.** For “GGGACACCGGGAAGGAGCGCAUCCAAACCACACAUGAGGAUCACCCAUGUAUAAAUAUGCAUGCAGGUAGGUCGCCCGAUGUCUC [Anrearradi]”, which “apparent KD of MS2 coat protein” value is on record?
**A.** 60.9 nM

**Q.** For “UGUAACAUGAGGAUCACCCAUGUAAGUGAUACCAGAUAAGUAGUAGUCCCUUGGCAGCAUAUUGGGCAAGUGUAUAGUCUAUACG [Same State - Theophylline A (Freestyle 6)]”, which “apparent KD of MS2 coat protein” value is on record?
**A.** 43 nM

**Q.** “AAAUAAAUACAUGAGGAUCACCCAUGUGAAGGAGCGGCCGUUAGGCCAGGUAGGUCGCGCAUGAAUAACUCCGUGCAAAAGCACA [MAT - Exclusion Arginine A - Mod of Eli - D18]” was tested. Which “apparent KD of MS2 coat protein” value did it give?
**A.** 9.62 nM

**Q.** “AAUCGUAAGGCGGCCGCCACUACACAUGAGGAUCACCCAUGUCUCGCAGGCUUGCGUUGGGUUAGUAGGACCGGGCCAGUAAUAA [Exclusion - Tryptophan B (Freestyle 15)]” was tested. Which “apparent KD of MS2 coat protein” value did it give?
**A.** 25.8 nM

**Q.** For “UGGGUUGGACCAGGAAAUGGUCUGACUCACCGAGGACCGGUACGGCCGCCACUCGUAGGUACAUGAGGAUCACCCAUGUCGGUGG [#1 Same State - Tryptophan A Attempt #11 (HarryS)]”, which “apparent KD of MS2 coat protein” value is on record?
**A.** 91.7 nM

**Q.** For “AGACGAGCAAUCAACGGGCGUUUCGUGACGCGAGGACCGGUACGGCCGCCACUCGAGUCUGGACAUGAGGAUCACCCAUGUUAUG [theeternabot_exclusion_MS2_Trp_A_46]”, which “apparent KD of MS2 coat protein” value is on record?
**A.** 32.8 nM

**Q.** Which “apparent KD of MS2 coat protein” value does the source give for “GGGCGAGUGGAGCGGCGUGCUCCGCUCCGUCGAGGACCGGUACGGCCGCCACUCGACAUGAGGAUCACCCAUGUGCGAGCUCGCG [#1 Exclusion - Tryptophan A Attempt #13 (HarryS)]” here?
**A.** 7.39 nM

**Q.** “CGAUAUGAGGUCGAUACCAGCAGCUUCAAGCACAUGAGGAUCACCCAUGUCCAUUUUACUUGCCCUUGGCAGCGACUUUGGAAAC [theeternabot_sameState_MS2_Theo_B_23]” was tested. Which “apparent KD of MS2 coat protein” value did it give?
**A.** 36.2 nM

**Q.** How did the “apparent KD of MS2 coat protein” value turn out when “GCGGACAUGAGGAUCACCCAUGUAAAUCCUCGAGGACCGGUACGGCCGCCACUCGAACGAGUGGCGCGCGAGCGCGCGCUCGCGC [aBa]” was run?
**A.** 39.4 nM

**Q.** For “GAAGAUCCGUAAGAUACCAGUGCAGAUCGGCACAUGAGGAUCACCCAUGUAAAGCAAGAACACCCUUGGCAGCUUUCGUAACAAC [theeternabot_sameState_MS2_Theo_B_15]”, which “apparent KD of MS2 coat protein” value is on record?
**A.** 66.9 nM

**Q.** With “UUAUUUAACGGAAGGAGCGCGGAAUAAUAAGUGGGUAAACAUGAGGAUCACCCAUGUAAACCGCAGGUAGGUCGCCGAUAUUUAU [AstrosEXyARgB#3]” as the sequence, how does the “apparent KD of MS2 coat protein” value read?
**A.** 66.2 nM

**Q.** For “ACUAGUUGUGCAGAUACCAGAUAUGAGGAUCACCCAUAUUUGGGAUGUUCGCAUCUUCCUGUCCCUUGGCAGCUGUACAUCUAGA [Omei Theo B Exc v7]”, which “apparent KD of MS2 coat protein” value is on record?
**A.** 37.9 nM

**Q.** How did the “apparent KD of MS2 coat protein” value turn out when “GUCUCAGACCGAGAUACCAGCUGGGUUUCCCACAUGAGGAUCACCCAUGUAUUCAGAUUAAGCCCUUGGCAGCUCAUCUAGGUCC [theeternabot_sameState_MS2_Theo_B_44]” was run?
**A.** 21.8 nM

**Q.** Which “apparent KD of MS2 coat protein” value does the source give for “CUCUGAGUGAGAAAUCACUCAGAGGCGGAUACCAGCGAGGUCCAUCGCCCUUGGCAGCCGAACAUGAGGAUCACCCAUGUCGGUA [#1 Same State - Theophylline A Attempt #21 (HarryS)]” here?
**A.** 9.9 nM

**Q.** How did the “apparent KD of MS2 coat protein” value turn out when “AUAAAAGGGUUAUAUAGAUUUAGGUCCAGUCGAGGACCGGUACGGCCGCCACUCGUACUGAAAUACAUGAGGAUCACCCAUGUUA [JR_SSTryptoA_Sub006]” was run?
**A.** 16.4 nM

**Q.** With “GGGUGGUAGGCGGCCGCCACUGAUUUUCAUUCCUAGAUGACAUGAGGAUCACCCAUGUUUAUGGGCAGGACCGGGCCUGCUGUGG [aaaV]” as the sequence, how does the “apparent KD of MS2 coat protein” value read?
**A.** 38.4 nM

**Q.** For “CACAUGAGGAUCACCCAUGUCUGAACUGAAGGAGCGCUAAAUAAGGCAGGUAGGUCGCGGAAUCUUGUGUGCAUAUGCACACGGG [9.T]”, which “apparent KD of MS2 coat protein” value is on record?
**A.** 18.2 nM

**Q.** “UGUACAGACAUCGAAUUCCUAUGUGCUGAAGGAGCGUCGUUGACGACAGGUAGGUCGCAGUUAACAUGAGGAUCACCCAUGUACA [Arg A Ex t5]” was tested. Which “apparent KD of MS2 coat protein” value did it give?
**A.** 45.8 nM

**Q.** For “CGUAUUGGAAACAGUACGAGUGAUCCGGUCCGAGGACCGGUACGGCCGCCACUCGAAAUUAAUAAACAUGAGGAUCACCCAUGUA [Ex Tryptophan A 10]”, which “apparent KD of MS2 coat protein” value is on record?
**A.** 14.8 nM

**Q.** Which “apparent KD of MS2 coat protein” value does the source give for “UCCACAUGAGGAUCACCCAUGUGCCAUGAUACCAGACAUGAAAAUGUCCCUUGGCAGCAUGAGUGAGGCAUCCGAAAGGAUGCCU [Chrlice]” here?
**A.** 149 nM

**Q.** “UGCGACAAGUGAAUACUUUGUUCUAGAGAUACCAGUUCCCGAGUGAACCCUUGGCAGCUCCCAACAUGAGGAUCACCCAUGUAUU [theeternabot_exclusion_MS2_Theo_A_24]” was tested. Which “apparent KD of MS2 coat protein” value did it give?
**A.** 15.9 nM

**Q.** How did the “apparent KD of MS2 coat protein” value turn out when “AAGGGAGAGUCAGAUACCAGAGUAAGAUGGCAUGGUAAUUACAUGAGGAUCACCCAUGUAUUCCCUUGGCAGCUGACCCUACGUU [Exclusion Theophylline B GF 19]” was run?
**A.** 17.6 nM

**Q.** How did the “apparent KD of MS2 coat protein” value turn out when “GGGCCUAUCUGAAGGAGCGACAUGAGGAUCACCCAUGUCUCCCGUUAUGGGAGUUCUUUAGGUCAGGUAGGUCGCAGGUAGGGCC [#1 Exclusion - Arginine B Attempt #5 (Inspired by Omei)]” was run?
**A.** 12.2 nM

**Q.** With “CCAGCCCUUCUAGAUACCAGCUUUCAAUAUAAGACAACUCACAUGAGGAUCACCCAUGUUAGCCCUUGGCAGCUAAGAUCCACAA [theeternabot_exclusion_MS2_Theo_B_32]” as the sequence, how does the “apparent KD of MS2 coat protein” value read?
**A.** 46.6 nM

**Q.** Which “apparent KD of MS2 coat protein” value does the source give for “GGCCAUGGAAACAUGGCGGCGGCGUAUGCGCGAGGACCGGUACGGCCGCCACUCGGGCGACAUGAGGAUCACCCAUGUUCCUCAU [ETA NP+V+V2 #25]” here?
**A.** 127 nM

**Q.** Which “apparent KD of MS2 coat protein” value does the source give for “CACAUGAGGAUCACCCAUGUCUGAACUGAAGGAGCGCUAAACAAGGCAGGUAGGUCGCGGAAUCCCGUGUGCAUAUGCACACGGG [9.Z]” here?
**A.** 24.1 nM

same assay, conditions: Eterna round: R107; input ligand: none

**Q.** How did the “apparent KD of MS2 coat protein” value turn out when “UAACAUGAGGAUCACCCAUGUUUGAAGGAACGAGGACCGGUACGGCCGCCACUCGACGAGUGGAUGAGAAGUGGGAUUGUGUGCU [Same State Trp A GF8]” was run?
**A.** 13 nM
